Data published in publication PMC9410896.

T1: MucR1 (Sinorhizobium fredii CCBAU45436, UniProt C3M8K5 1-143, A8T;V56I)
T1 sequence: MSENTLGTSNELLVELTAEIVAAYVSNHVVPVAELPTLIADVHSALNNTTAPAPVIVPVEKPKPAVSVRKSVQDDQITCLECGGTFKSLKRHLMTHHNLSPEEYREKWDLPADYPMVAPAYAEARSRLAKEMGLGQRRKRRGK


Target: T1, MucR1
Assay: EMSA

| Binder | binding result |
| --- | --- |
| motif_b1(2) (dsDNA) DNA 1: GGTATTTTTTGGGGAATTGAAT DNA 2: ATTCAATTCCCCAAAAAATACC | binds |
| spacer S1 (primer name spacer2) (dsDNA) DNA 1: GCCCAGTTCTACTCCATTTT DNA 2: AAAATGGAGTAGAACTGGGC | binds |
| motif_b3 (dsDNA) DNA 1: ATGCTTCCAAGTTGTTTAGGT DNA 2: ACCTAAACAACTTGGAAGCAT | binds |
| motif_a1 (dsDNA) DNA 1: GTTGTTTAGGTATTTTTTGGGGAATTGAAT DNA 2: ATTCAATTCCCCAAAAAATACCTAAACAAC | binds |
| motif_b7 (dsDNA) DNA 1: ATTGATATATCCATAGACAAC DNA 2: GTTGTCTATGGATATATCAAT | binds |
| motif_b5 (dsDNA) DNA 1: TTTAAATCACCTATTTATATT DNA 2: AATATAAATAGGTGATTTAAA | binds |
| spacer S4 (dsDNA) DNA 1: AAACATTGACTGTATATAATTTTA DNA 2: TAAAATTATATACAGTCAATGTTT | binds |
| motif_b6 (dsDNA) DNA 1: ATAGACAACGCAAAGTATTGA DNA 2: TCAATACTTTGCGTTGTCTAT | binds |
| spacer S3 (dsDNA) DNA 1: AATTATCGGGATCGGGGGATAATGACA DNA 2: TGTCATTATCCCCCGATCCCGATAATT | binds |
| spacer S2 (primer name spacer1) (dsDNA) DNA 1: GCCCAGTTCTACTCCATTTTTAGTAGAAA DNA 2: TTTCTACTAAAAATGGAGTAGAACTGGGC | binds |
| motif_b4 (dsDNA) DNA 1: TTATATTGACCGACTGAGATA DNA 2: TATCTCAGTCGGTCAATATAA | binds |

Target: T1, MucR1
Assay: EMSA
Remark: another data set of the same source

| Binder | binding result |
| --- | --- |
| motif_b8 (dsDNA) DNA 1: CAATTGTATTGATATATCCAT DNA 2: ATGGATATATCAATACAATTG | binds |
